# B1: tRNALys3 (structured_RNA)
# RNA: GCCCGGAUAGCUCAGUCGGUAGAGCAUCAGACUUUUAAUCUGAGGGUCCAGGGUUCAAGUCCCUGUUCGGGCGCCA
# modifications: unmodified transcript
# B2: PBS/TLE105:antiPBS18+3 (mixed)
# RNA: GGGCUCUGGUAACUAGAGAUCCCUCAGACCCUUUUAGUCAGUGUGGAAAAUCUCUAGCAGUGGCGCCCGAACAGGGACUUGAAAGCGAAAGUAAAGCCAGAGCCC
# DNA: GTCCCTGTTCGGGCGCCACTG
# B3: PBS/TLE105 (structured_RNA)
# RNA: B2 RNA
# B4: PBS/TLE105:antiPBS18+6 (mixed)
# RNA: B2 RNA
# DNA: GTCCCTGTTCGGGCGCCACTGCTA
# B5: PBS/TLE105:antiPBS18 (mixed)
# RNA: B2 RNA
# DNA: GTCCCTGTTCGGGCGCCA
# B6: PBS/TLE105:antiPBS18+11 (mixed)
# RNA: B2 RNA
# DNA: GTCCCTGTTCGGGCGCCACTGCTAGAGAT
# Legend:
# [1] = biological target: T1, WT LysRS(ΔN65) (human, UniProt Q15046 66-597); assay: fluorescence anisotropy; 1 mM Mg2+; FA: 20 mM Tris-HCl pH 8, 15 mM NaCl, 35 mM KCl, 1 mM MgCl2, 20 nM RNA (30 nM per supplement), temperature not stated; XL-SHAPE: 20 mM HEPES pH 7.5, 60 mM NaCl; conditions: protein: recombinant; tags: His; chain copies: 2; label: 3' fluorescein (FTSC); tRNA fold
# T1 sequence (Q15046 66-597, stated change not applied): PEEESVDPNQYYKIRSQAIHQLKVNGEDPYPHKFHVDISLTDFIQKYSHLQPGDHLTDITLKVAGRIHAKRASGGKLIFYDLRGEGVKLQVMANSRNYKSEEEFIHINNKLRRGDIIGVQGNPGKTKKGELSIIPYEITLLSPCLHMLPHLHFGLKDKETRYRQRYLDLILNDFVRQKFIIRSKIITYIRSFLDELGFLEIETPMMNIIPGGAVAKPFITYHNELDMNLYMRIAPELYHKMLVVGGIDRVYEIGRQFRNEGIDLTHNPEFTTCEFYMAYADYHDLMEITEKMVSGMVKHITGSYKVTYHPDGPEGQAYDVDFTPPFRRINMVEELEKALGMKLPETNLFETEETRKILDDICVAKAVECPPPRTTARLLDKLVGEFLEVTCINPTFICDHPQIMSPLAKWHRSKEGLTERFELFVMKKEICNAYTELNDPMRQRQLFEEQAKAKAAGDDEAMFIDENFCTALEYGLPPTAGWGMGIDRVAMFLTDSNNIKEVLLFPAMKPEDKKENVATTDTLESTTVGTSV
# [2] = biological target: T2, S207D LysRS(ΔN65) (human, UniProt Q15046 66-597, S207D); assay: as above; conditions: protein: recombinant; tags: His; chain copies: 2; label: 3' fluorescein (FTSC); tRNA fold
# T2 sequence (Q15046 66-597 S207D): as the sequence (Q15046 66-597, stated change not applied) above, with S142D counted along it
# [3] = biological target: T1, WT LysRS(ΔN65); assay: fluorescence anisotropy; 1 mM Mg2+; conditions: protein: recombinant, tags: His, chain copies: 2
# [4] = biological target: T2, S207D LysRS(ΔN65); assay: fluorescence anisotropy; 1 mM Mg2+; conditions: protein: recombinant, tags: His, chain copies: 2
# [5] = label: 3' fluorescein (FTSC) on RNA, 21-nt DNA annealed to folded RNA, 1.5x DNA
# [6] = label: 3' fluorescein (FTSC) in FA, folded domain with TLE hairpin
# [7] = label: 3' fluorescein (FTSC) on RNA, 24-nt DNA annealed, extends into TLE stem, 1.5x DNA
# [8] = label: 3' fluorescein (FTSC) on RNA, 18-nt DNA annealed to PBS of folded RNA, 1.5x DNA
# [9] = label: 3' fluorescein (FTSC) on RNA, 29-nt DNA annealed, extends into TLE stem, 1.5x DNA
binder,measurement,setting,value
B1,Kd,[1],407 ± 33 nM
same,Kd,[2],470 ± 190 nM
B2,Kd,[3]; [5],488 ± 171 nM
same,Kd,[4]; [5],305 ± 75 nM
B3,Kd,[3]; [6],330 ± 115 nM
same,Kd,[4]; [6],315 ± 130 nM
B4,Kd,[3]; [7],865 ± 379 nM
same,Kd,[4]; [7],590 ± 182 nM
B5,Kd,[3]; [8],240 ± 95 nM
same,Kd,[4]; [8],417 ± 90 nM
B6,Kd,[3]; [9],1010 ± 639 nM
same,Kd,[4]; [9],949 ± 148 nM

# — PMC9315659
